From article PMC9746966, “Structural basis for matriglycan synthesis by the LARGE1 dual glycosyltransferase” (PLOS ONE, 2022)

Target: the molecule itself
Experiment: mass photometry; Refeyn One MP; LARGE1 samples diluted in TBS to approximately 30 nM (2.5 ug/ml), room temperature, 60 second recordings; monomer to dimer

Protein | stoichiometry N
LARGE1^ecto (soluble secreted ectodomain of human LARGE1 with its coiled-coil domain, residues 29-756) (domain or fragment, UniProt O95461 29-756, looked up, Cloned into a modified pHLsec plasmid (BglII/NotI); also called Like-acetylglucosaminyltransferase 1; LARGE1-His WT) LFSGSFEDGKPVSLSPLESQAHSPRYTASSQRERESLEVRMREVEEENRALRRQLSLAQGRAPSHRRGNHSKTYSMEEGTGDSENLRAGIVAGNSSECGQQPVVEKCETIHVAIVCAGYNASRDVVTLVKSVLFHRRNPLHFHLIADSIAEQILATLFQTWMVPAVRVDFYNADELKSEVSWIPNKHYSGIYGLMKLVLTKTLPANLERVIVLDTDITFATDIAELWAVFHKFKGQQVLGLVENQSDWYLGNLWKNHRPWPALGRGYNTGVILLLLDKLRKMKWEQMWRLTAERELMGMLSTSLADQDIFNAVIKQNPFLVYQLPCFWNVQLSDHTRSEQCYRDVSDLKVIHWNSPKKLRVKNKHVEFFRNLYLTFLEYDGNLLRRELFGCPSEADVNSENLQKQLSELDEDDLCYEFRRERFTVHRTHLYFLHYEYEPAADSTDVTLVAQLSMDRLQMLEAICKHWEGPISLALYLSDAEAQQFLRYAQGSEVLMSRHNVGYHIVYKEGQFYPVNLLRNVAMKHISTPYMFLSDIDFLPMYGLYEYLRKSVIQLDLANTKKAMIVPAFETLRYRLSFPKSKAELLSMLDMGTLFTFRYHVWTKGHAPTNFAKWRTATTPYRVEWEADFEPYVVVRRDCPEYDRRFVGFGWNKVAHIMELDVQEYEFIVLPNAYMIHMPHAPSFDITKFRSNKQYRICLKTLKEEFQQDMSRRYGFAALKYLTAENNS | 2
LARGE1^ΔCC (soluble secreted ectodomain of human LARGE1 without its coiled-coil domain, residues 92-756) (domain or fragment, UniProt O95461 92-756, looked up, residues 134 to 752 are modelled in the crystal structure; Cloned into a modified pHLsec plasmid; also called LARGE1 without CC; LARGE1- CC) SHRRGNHSKTYSMEEGTGDSENLRAGIVAGNSSECGQQPVVEKCETIHVAIVCAGYNASRDVVTLVKSVLFHRRNPLHFHLIADSIAEQILATLFQTWMVPAVRVDFYNADELKSEVSWIPNKHYSGIYGLMKLVLTKTLPANLERVIVLDTDITFATDIAELWAVFHKFKGQQVLGLVENQSDWYLGNLWKNHRPWPALGRGYNTGVILLLLDKLRKMKWEQMWRLTAERELMGMLSTSLADQDIFNAVIKQNPFLVYQLPCFWNVQLSDHTRSEQCYRDVSDLKVIHWNSPKKLRVKNKHVEFFRNLYLTFLEYDGNLLRRELFGCPSEADVNSENLQKQLSELDEDDLCYEFRRERFTVHRTHLYFLHYEYEPAADSTDVTLVAQLSMDRLQMLEAICKHWEGPISLALYLSDAEAQQFLRYAQGSEVLMSRHNVGYHIVYKEGQFYPVNLLRNVAMKHISTPYMFLSDIDFLPMYGLYEYLRKSVIQLDLANTKKAMIVPAFETLRYRLSFPKSKAELLSMLDMGTLFTFRYHVWTKGHAPTNFAKWRTATTPYRVEWEADFEPYVVVRRDCPEYDRRFVGFGWNKVAHIMELDVQEYEFIVLPNAYMIHMPHAPSFDITKFRSNKQYRICLKTLKEEFQQDMSRRYGFAALKYLTAENNS | 2
